# Values quoted from earlier work as cited in article PMC7830187.
# Target: synthetic peptide
substance,measurement,value
intersectin-1 SH3 (from UniProt Q15811),Kd,50 µM
